Data published in US20200270325A1 (Merck Sharp & Dohme, published 2020).
Numbered stars: 1 amine (or outer) side, 2 acyl side, 3 side chain; on linkers, the order of the positions; unused ones are H or OH. Square brackets hold non-standard residues; d marks the D form. Side chains are listed from the residue outwards. Ends that are not written are not given here. * marks the point of attachment. Phe(4-CH2NH2) = NCc1ccc(C[C@H](N)C(=O)O)cc1; C18 diacid = O=C(O)CCCCCCCCCCCCCCCCC(=O)*; C16 diacid = O=C(O)CCCCCCCCCCCCCCC(=O)*; γGlu = O=C(O)[C@H](CCC(=O)[*:2])N[*:1]; Met(O2) = CS(=O)(=O)CC[C@H](N)C(=O)O; αMeD = C[C@](N)(CC(=O)O)C(=O)O; AEEA = NCCOCCOCC(=O)O; Aib = CC(C)(N)C(=O)O

B1: TP675 (peptide)
peptide: H[Aib]QGTFTSDYSKYLD[Aib]RAAQDFVK([AEEA-AEEA-γGlu-C18 diacid])WL[Met(O2)]ET-NH2
modifications: N-terminus assumed
SMILES: CC(C)C[C@H](NC(=O)[C@H](Cc1c[nH]c2ccccc12)NC(=O)[C@H](CCCCNC(=O)COCCOCCNC(=O)COCCOCCNC(=O)CC[C@H](NC(=O)CCCCCCCCCCCCCCCCC(=O)O)C(=O)O)NC(=O)[C@@H](NC(=O)[C@H](Cc1ccccc1)NC(=O)[C@H](CC(=O)O)NC(=O)[C@H](CCC(N)=O)NC(=O)[C@H](C)NC(=O)[C@H](C)NC(=O)[C@H](CCCNC(=N)N)NC(=O)C(C)(C)NC(=O)[C@H](CC(=O)O)NC(=O)[C@H](CC(C)C)NC(=O)[C@H](Cc1ccc(O)cc1)NC(=O)[C@H](CCCCN)NC(=O)[C@H](CO)NC(=O)[C@H](Cc1ccc(O)cc1)NC(=O)[C@H](CC(=O)O)NC(=O)[C@H](CO)NC(=O)[C@@H](NC(=O)[C@H](Cc1ccccc1)NC(=O)[C@@H](NC(=O)CNC(=O)[C@H](CCC(N)=O)NC(=O)C(C)(C)NC(=O)[C@@H](N)Cc1c[nH]cn1)[C@@H](C)O)[C@@H](C)O)C(C)C)C(=O)N[C@@H](CCS(C)(=O)=O)C(=O)N[C@@H](CCC(=O)O)C(=O)N[C@H](C(N)=O)[C@@H](C)O
B2: TP673 (peptide)
peptide: H[Aib]QGTFTSDYSKYLD[Aib]RAAK([AEEA-AEEA-γGlu-C18 diacid])DFVQWL[Met(O2)]ET-NH2
modifications: N-terminus assumed
SMILES: CC(C)C[C@H](NC(=O)[C@H](Cc1c[nH]c2ccccc12)NC(=O)[C@H](CCC(N)=O)NC(=O)[C@@H](NC(=O)[C@H](Cc1ccccc1)NC(=O)[C@H](CC(=O)O)NC(=O)[C@H](CCCCNC(=O)COCCOCCNC(=O)COCCOCCNC(=O)CC[C@H](NC(=O)CCCCCCCCCCCCCCCCC(=O)O)C(=O)O)NC(=O)[C@H](C)NC(=O)[C@H](C)NC(=O)[C@H](CCCNC(=N)N)NC(=O)C(C)(C)NC(=O)[C@H](CC(=O)O)NC(=O)[C@H](CC(C)C)NC(=O)[C@H](Cc1ccc(O)cc1)NC(=O)[C@H](CCCCN)NC(=O)[C@H](CO)NC(=O)[C@H](Cc1ccc(O)cc1)NC(=O)[C@H](CC(=O)O)NC(=O)[C@H](CO)NC(=O)[C@@H](NC(=O)[C@H](Cc1ccccc1)NC(=O)[C@@H](NC(=O)CNC(=O)[C@H](CCC(N)=O)NC(=O)C(C)(C)NC(=O)[C@@H](N)Cc1c[nH]cn1)[C@@H](C)O)[C@@H](C)O)C(C)C)C(=O)N[C@@H](CCS(C)(=O)=O)C(=O)N[C@@H](CCC(=O)O)C(=O)N[C@H](C(N)=O)[C@@H](C)O
B3: TP672 (peptide)
peptide: H[Aib]QGTFTSDYSKYLDARAAK([AEEA-AEEA-γGlu-C18 diacid])DFVQWL[Met(O2)]ET-NH2
modifications: N-terminus assumed
SMILES: CC(C)C[C@H](NC(=O)[C@H](Cc1ccc(O)cc1)NC(=O)[C@H](CCCCN)NC(=O)[C@H](CO)NC(=O)[C@H](Cc1ccc(O)cc1)NC(=O)[C@H](CC(=O)O)NC(=O)[C@H](CO)NC(=O)[C@@H](NC(=O)[C@H](Cc1ccccc1)NC(=O)[C@@H](NC(=O)CNC(=O)[C@H](CCC(N)=O)NC(=O)C(C)(C)NC(=O)[C@@H](N)Cc1c[nH]cn1)[C@@H](C)O)[C@@H](C)O)C(=O)N[C@@H](CC(=O)O)C(=O)N[C@@H](C)C(=O)N[C@@H](CCCNC(=N)N)C(=O)N[C@@H](C)C(=O)N[C@@H](C)C(=O)N[C@@H](CCCCNC(=O)COCCOCCNC(=O)COCCOCCNC(=O)CC[C@H](NC(=O)CCCCCCCCCCCCCCCCC(=O)O)C(=O)O)C(=O)N[C@@H](CC(=O)O)C(=O)N[C@@H](Cc1ccccc1)C(=O)N[C@H](C(=O)N[C@@H](CCC(N)=O)C(=O)N[C@@H](Cc1c[nH]c2ccccc12)C(=O)N[C@@H](CC(C)C)C(=O)N[C@@H](CCS(C)(=O)=O)C(=O)N[C@@H](CCC(=O)O)C(=O)N[C@H](C(N)=O)[C@@H](C)O)C(C)C
B4: TP677 (peptide)
peptide: H[Aib]QGTFTSDYSKYLDARAAK([AEEA-AEEA-AEEA-γGlu-C18 diacid])DFVQWL[Met(O2)][αMeD]T-NH2
modifications: N-terminus assumed
SMILES: CC(C)C[C@H](NC(=O)[C@H](Cc1ccc(O)cc1)NC(=O)[C@H](CCCCN)NC(=O)[C@H](CO)NC(=O)[C@H](Cc1ccc(O)cc1)NC(=O)[C@H](CC(=O)O)NC(=O)[C@H](CO)NC(=O)[C@@H](NC(=O)[C@H](Cc1ccccc1)NC(=O)[C@@H](NC(=O)CNC(=O)[C@H](CCC(N)=O)NC(=O)C(C)(C)NC(=O)[C@@H](N)Cc1c[nH]cn1)[C@@H](C)O)[C@@H](C)O)C(=O)N[C@@H](CC(=O)O)C(=O)N[C@@H](C)C(=O)N[C@@H](CCCNC(=N)N)C(=O)N[C@@H](C)C(=O)N[C@@H](C)C(=O)N[C@@H](CCCCNC(=O)COCCOCCNC(=O)COCCOCCNC(=O)COCCOCCNC(=O)CC[C@H](NC(=O)CCCCCCCCCCCCCCCCC(=O)O)C(=O)O)C(=O)N[C@@H](CC(=O)O)C(=O)N[C@@H](Cc1ccccc1)C(=O)N[C@H](C(=O)N[C@@H](CCC(N)=O)C(=O)N[C@@H](Cc1c[nH]c2ccccc12)C(=O)N[C@@H](CC(C)C)C(=O)N[C@@H](CCS(C)(=O)=O)C(=O)N[C@@](C)(CC(=O)O)C(=O)N[C@H](C(N)=O)[C@@H](C)O)C(C)C
B5: TP674 (peptide)
peptide: H[Aib]QGTFTSDYSKYLEARAAK([AEEA-AEEA-γGlu-C18 diacid])DFVQWL[Met(O2)]DT-NH2
modifications: N-terminus assumed
SMILES: CC(C)C[C@H](NC(=O)[C@H](Cc1ccc(O)cc1)NC(=O)[C@H](CCCCN)NC(=O)[C@H](CO)NC(=O)[C@H](Cc1ccc(O)cc1)NC(=O)[C@H](CC(=O)O)NC(=O)[C@H](CO)NC(=O)[C@@H](NC(=O)[C@H](Cc1ccccc1)NC(=O)[C@@H](NC(=O)CNC(=O)[C@H](CCC(N)=O)NC(=O)C(C)(C)NC(=O)[C@@H](N)Cc1c[nH]cn1)[C@@H](C)O)[C@@H](C)O)C(=O)N[C@@H](CCC(=O)O)C(=O)N[C@@H](C)C(=O)N[C@@H](CCCNC(=N)N)C(=O)N[C@@H](C)C(=O)N[C@@H](C)C(=O)N[C@@H](CCCCNC(=O)COCCOCCNC(=O)COCCOCCNC(=O)CC[C@H](NC(=O)CCCCCCCCCCCCCCCCC(=O)O)C(=O)O)C(=O)N[C@@H](CC(=O)O)C(=O)N[C@@H](Cc1ccccc1)C(=O)N[C@H](C(=O)N[C@@H](CCC(N)=O)C(=O)N[C@@H](Cc1c[nH]c2ccccc12)C(=O)N[C@@H](CC(C)C)C(=O)N[C@@H](CCS(C)(=O)=O)C(=O)N[C@@H](CC(=O)O)C(=O)N[C@H](C(N)=O)[C@@H](C)O)C(C)C
B6: TP676 (peptide)
peptide: H[Aib]QGTFTSDYSKYLDARAAK([AEEA-AEEA-AEEA-γGlu-C18 diacid])DFVQWL[Met(O2)]DT-NH2
modifications: N-terminus assumed
SMILES: CC(C)C[C@H](NC(=O)[C@H](Cc1ccc(O)cc1)NC(=O)[C@H](CCCCN)NC(=O)[C@H](CO)NC(=O)[C@H](Cc1ccc(O)cc1)NC(=O)[C@H](CC(=O)O)NC(=O)[C@H](CO)NC(=O)[C@@H](NC(=O)[C@H](Cc1ccccc1)NC(=O)[C@@H](NC(=O)CNC(=O)[C@H](CCC(N)=O)NC(=O)C(C)(C)NC(=O)[C@@H](N)Cc1c[nH]cn1)[C@@H](C)O)[C@@H](C)O)C(=O)N[C@@H](CC(=O)O)C(=O)N[C@@H](C)C(=O)N[C@@H](CCCNC(=N)N)C(=O)N[C@@H](C)C(=O)N[C@@H](C)C(=O)N[C@@H](CCCCNC(=O)COCCOCCNC(=O)COCCOCCNC(=O)COCCOCCNC(=O)CC[C@H](NC(=O)CCCCCCCCCCCCCCCCC(=O)O)C(=O)O)C(=O)N[C@@H](CC(=O)O)C(=O)N[C@@H](Cc1ccccc1)C(=O)N[C@H](C(=O)N[C@@H](CCC(N)=O)C(=O)N[C@@H](Cc1c[nH]c2ccccc12)C(=O)N[C@@H](CC(C)C)C(=O)N[C@@H](CCS(C)(=O)=O)C(=O)N[C@@H](CC(=O)O)C(=O)N[C@H](C(N)=O)[C@@H](C)O)C(C)C

Biological target: human GLP-1 receptor (GLP1R) (human, UniProt P43220 24-463)
Test: cell-based or functional assay

Binder | GLP1R EC50 human [nM]
H[Aib]QGTFTSDYSKYLD[Aib]RAAQFVQ[Phe(4-CH2NH2)]([AEEA-AEEA-γGlu-C16 diacid])WLLATK-{γGlu-NH2} [TP667] | > 19.8
B1 | 0.71
B2 | 0.67
B3 | 0.51
B4 | 0.76
H[Aib]QGTFTSDYSKYLD[Aib]RAAQ[Phe(4-CH2NH2)]([AEEA-AEEA-γGlu-C16 diacid])FVQWLLATK-{γGlu-NH2} [TP665] | 1.6
B5 | 0.45
H[Aib]QGTFTSD[Phe(4-CH2NH2)]([AEEA-AEEA-γGlu-C20‑OH])SKYLD[Aib]RAAQDFVQWLLATK-{γGlu-NH2} [TP582] | 2.57
B6 | 0.26
H[Aib]QGTFTSDYSKYLD[Aib]RAAQFVQK([AEEA-AEEA-γGlu-C16 diacid])WLLATK-{γGlu-NH2} [TP666] | > 19.8

Biological target: human Glucagon receptor (GCGR) (human, UniProt P47871 26-477)
Sequence (P47871 26-477): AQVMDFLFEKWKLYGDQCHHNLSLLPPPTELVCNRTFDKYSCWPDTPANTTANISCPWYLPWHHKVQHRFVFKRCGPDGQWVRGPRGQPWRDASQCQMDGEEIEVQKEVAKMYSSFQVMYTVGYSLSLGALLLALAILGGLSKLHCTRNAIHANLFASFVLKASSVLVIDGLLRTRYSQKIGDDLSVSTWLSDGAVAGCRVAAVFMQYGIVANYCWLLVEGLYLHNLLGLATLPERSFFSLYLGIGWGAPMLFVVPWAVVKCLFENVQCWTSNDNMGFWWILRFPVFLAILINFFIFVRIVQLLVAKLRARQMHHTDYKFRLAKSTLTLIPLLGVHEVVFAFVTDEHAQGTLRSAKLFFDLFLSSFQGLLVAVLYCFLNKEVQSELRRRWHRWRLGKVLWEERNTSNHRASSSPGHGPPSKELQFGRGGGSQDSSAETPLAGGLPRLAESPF
Test: cell-based or functional assay

Binder | GCGR EC50 human [nM]
H[Aib]QGTFTSDYSKYLD[Aib]RAAQFVQ[Phe(4-CH2NH2)]([AEEA-AEEA-γGlu-C16 diacid])WLLATK-{γGlu-NH2} [TP667] | > 19.8
B1 | 0.3
B2 | 0.22
B3 | 0.35
B4 | 1.42
H[Aib]QGTFTSDYSKYLD[Aib]RAAQ[Phe(4-CH2NH2)]([AEEA-AEEA-γGlu-C16 diacid])FVQWLLATK-{γGlu-NH2} [TP665] | 0.79
B5 | 1.08
H[Aib]QGTFTSD[Phe(4-CH2NH2)]([AEEA-AEEA-γGlu-C20‑OH])SKYLD[Aib]RAAQDFVQWLLATK-{γGlu-NH2} [TP582] | 4.95
B6 | 0.82
H[Aib]QGTFTSDYSKYLD[Aib]RAAQFVQK([AEEA-AEEA-γGlu-C16 diacid])WLLATK-{γGlu-NH2} [TP666] | > 19.8
